Measurements from publication doi:10.1101/2025.07.03.659157, “Transient Poly(ADP-Ribose) Triggers FUS Condensation Hysteresis via a Prion-Like Mechanism” (bioRxiv, 2025).

Legend:
FUS RGG3-PY fragment = test: fluorescence anisotropy; settings: poly(ADP-ribose); length not given in material; EMSA and anisotropy: 50 mM Tris-HCl pH 7.5, 100 mM KCl, 10 mM beta-mercaptoethanol, 0.1 mg/mL BSA, 2 mM MgCl2, 23 C, 30 min; single-molecule: 20 mM Tris-HCl pH …
[1] = system: FUS with all 15 RGG3-PY arginines to alanine; test: fluorescence anisotropy or EMSA (method not given); settings: poly(ADP-ribose); length not given in material; EMSA and anisotropy: 50 mM Tris-HCl pH 7.5, 100 mM KCl, 10 mM beta-mercaptoethanol, 0.1 mg/mL BSA, 2 mM MgCl2, 23 C, 30 min; single-molecule: 20 mM Tris-HCl pH …
[KGKGG]5 peptide = EMSA; settings: poly(ADP-ribose), 16 ADP-ribose units; no base sequence; EMSA and anisotropy: 50 mM Tris-HCl pH 7.5, 100 mM KCl, 10 mM beta-mercaptoethanol, 0.1 mg/mL BSA, 2 mM MgCl2, 23 C, 30 min; single-molecule: 20 mM Tris-HCl pH …
[KGYGG]5 peptide = EMSA; settings: poly(ADP-ribose), 16 ADP-ribose units; no base sequence; EMSA and anisotropy: 50 mM Tris-HCl pH 7.5, 100 mM KCl, 10 mM beta-mercaptoethanol, 0.1 mg/mL BSA, 2 mM MgCl2, 23 C, 30 min; single-molecule: 20 mM Tris-HCl pH …
[RGYGG]5 peptide = EMSA; settings: poly(ADP-ribose), 16 ADP-ribose units; no base sequence; EMSA and anisotropy: 50 mM Tris-HCl pH 7.5, 100 mM KCl, 10 mM beta-mercaptoethanol, 0.1 mg/mL BSA, 2 mM MgCl2, 23 C, 30 min; single-molecule: 20 mM Tris-HCl pH …
[RGRGG]5 peptide = EMSA; settings: poly(ADP-ribose), 16 ADP-ribose units; no base sequence; EMSA and anisotropy: 50 mM Tris-HCl pH 7.5, 100 mM KCl, 10 mM beta-mercaptoethanol, 0.1 mg/mL BSA, 2 mM MgCl2, 23 C, 30 min; single-molecule: 20 mM Tris-HCl pH …
[2] = target: T1, His-MBP-tagged PrLD (prion-like domain) of FUS (Fused in Sarcoma); test: BLI
T1 chain: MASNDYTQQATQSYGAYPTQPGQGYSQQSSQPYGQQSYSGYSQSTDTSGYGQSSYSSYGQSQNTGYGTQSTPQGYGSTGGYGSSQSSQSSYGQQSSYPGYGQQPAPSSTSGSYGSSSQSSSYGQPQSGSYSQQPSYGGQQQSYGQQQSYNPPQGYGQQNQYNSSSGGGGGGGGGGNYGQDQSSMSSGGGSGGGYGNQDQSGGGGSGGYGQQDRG

[3] = target: T2, His-MBP-tagged PrLD (prion-like domain) of FUS (Fused in Sarcoma); test: BLI; His-MBP-tagged PrLD (400 nM) immobilised on HIS1K (anti-His) biosensors; analyte in PBSA (PBS + 0.1% BSA), MBP-tagged CTRR at 0.4, 1, 2, 5 and 12 uM; association 600 s, dissociation 600 s; Octet RED96; association phase fitted to an exponential kinetic binding model; settings: both partners purified
T2 chain: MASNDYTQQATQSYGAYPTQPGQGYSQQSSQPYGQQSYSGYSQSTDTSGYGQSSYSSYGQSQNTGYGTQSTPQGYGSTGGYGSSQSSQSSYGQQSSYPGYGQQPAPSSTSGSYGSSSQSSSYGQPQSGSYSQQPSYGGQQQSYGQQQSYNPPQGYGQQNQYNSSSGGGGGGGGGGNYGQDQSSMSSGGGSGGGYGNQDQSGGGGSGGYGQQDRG

AF488-PAR (anisotropy)
binding signal (fold weaker than full-length FUS) (FUS RGG3-PY fragment): 3
binding signal (fold weaker than wild-type FUS) [1]: 2.7

Cy3-PAR 16-mer
Kd ([KGKGG]5 peptide): 24 µM
Kd ([KGYGG]5 peptide): 29 µM
Kd ([RGYGG]5 peptide): 10 µM
Kd ([RGRGG]5 peptide): 0.8 µM

B1: MBP-tagged CTRR (C-terminal RGG-rich region, RGG2-ZnF-RGG3-PY) of FUS (domain or fragment)
chain: RADFNRGGGNGRGGRGRGGPMGRGGYGGGGSGGGGRGGFPSGGGGGGGQQRAGDWKCPNPTCENMNFSWRNECNQCKAPKPDGPGGGPGGSHMGGNYGDDRRGGRGGYDRGGYRGRGGDRGGFRGGRGGGDRGGFGPGKMDSRGEHRQDRRERPY
modifications: MBP tag omitted. Limits are not printed: start taken just after the RRM (285-371), running to the C-terminus (RGG2-ZnF-RGG3-PY). Zn2+ in the RanBP2-type zinc finger. His-MBP tag omitted. Limits are not printed: 1-214 is the conventional FUS PrLD/low-complexity domain, and it includes Y177, which the paper places in the PrLD.
koff [2]: 0.00052 s⁻¹

B2: MBP-tagged CTRR (C-terminal RGG-rich region, RGG2-ZnF-RGG3-PY) of FUS (domain or fragment)
chain: RADFNRGGGNGRGGRGRGGPMGRGGYGGGGSGGGGRGGFPSGGGGGGGQQRAGDWKCPNPTCENMNFSWRNECNQCKAPKPDGPGGGPGGSHMGGNYGDDRRGGRGGYDRGGYRGRGGDRGGFRGGRGGGDRGGFGPGKMDSRGEHRQDRRERPY
modifications: MBP tag omitted. Limits are not printed: start taken just after the RRM (285-371), running to the C-terminus (RGG2-ZnF-RGG3-PY). Zn2+ in the RanBP2-type zinc finger. / His-MBP tag omitted. Limits are
Kd [3]: 1.37 µM
